Patent publication US20240174741A1 (IMMUNOME, published 2024)

Key:
IL-36Ra = molecular target: T1, IL-36Ra (human, UniProt Q9UBH0 1-155, limits assumed); assay: CDI HuProt native protein microarray, IL-1 family members
T1 sequence (looked up): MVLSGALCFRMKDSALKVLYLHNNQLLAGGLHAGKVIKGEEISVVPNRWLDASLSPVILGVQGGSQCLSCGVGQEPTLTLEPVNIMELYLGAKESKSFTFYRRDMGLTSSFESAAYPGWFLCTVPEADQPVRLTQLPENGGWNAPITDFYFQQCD
Protocol: (§1) To confirm specificity to IL-38, several lead candidate antibodies (CD1-M3, CD1-M8, NZB-M8) were analyzed in a High-Spec Cross-reactivity Assay using native HuProt arrays (CDI Laboratories). […] of antibody was incubated overnight in a cold room, washed, and probed with anti-human secondary antibodies. Fluorescence intensity (F635) as an indicator of binding was measured for each spot. CDI software quantified the specificity of the antibody to each spot based on a Z-score. Z-score is defined as [F635−(Average F635 on array)]/(Standard deviation of F635 on array). S-score is defined as the difference between the Z-score of a given protein and the Z-score of the next highest protein.

IL-18 = molecular target: T2, IL-18 (human, UniProt Q14116 1-193, limits assumed); assay: as above
T2 sequence (looked up): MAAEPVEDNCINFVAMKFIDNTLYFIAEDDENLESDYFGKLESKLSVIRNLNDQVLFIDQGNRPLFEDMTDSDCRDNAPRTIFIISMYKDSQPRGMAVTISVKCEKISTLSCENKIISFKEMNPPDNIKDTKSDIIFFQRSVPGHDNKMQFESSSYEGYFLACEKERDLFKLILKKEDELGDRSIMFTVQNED
Protocol: as §1

Z-score (IL-36Ra): -0.017 | Z-score (IL-18): -0.016
B1: CD1-M3 (antibody, V domains shown)
VH: EVQLQQSGPELVKPGASVKIPCKASGYTFTDYNMDWVKQSHGKSLEWIGDINPNNGGTIYNQKFKGKATLTVDKSSSTAYMELRSLTSEDTAVYYCSRPYYGYFAYWGQGTLVTVSA
VL: DVVMTQSPLSLPVSLGDQASISCRSSQSLVHSHENTFLHWYLQKPGQSPKLLIYRVSNRFSGVPDRFSGSGSGTDFTLKISRVEAEDLGVYFCSQSTHVPLTFGAGTKLELK
notes: Mouse monoclonal from a hybridoma of a CD-1 mouse immunized with full length recombinant IL-38
